In article PMC4687643:

Tests used:
[1] = molecular target: GST-Actin binding protein 1 (Abp1) SH3 domain (mouse) (UniProt Q62418)
[2] = molecular target: GST-Cdc42 interacting protein 4 (CIP4) SH3 domain (human) (UniProt Q15642)
[3] = molecular target: GST-Formin Binding Protein 17 (FBP17) SH3 domain (human) (UniProt Q96RU3)
[4] = molecular target: GST-amphiphysin I SH3 domain (human) (UniProt P49418)
[5] = molecular target: GST-amphiphysin II SH3 domain (human) (UniProt O00499)
[6] = molecular target: GST-cortactin SH3 domain (mouse) (UniProt Q60598)
GST-cortactin SH3 domain (mouse), sequence (Q60598 488-546): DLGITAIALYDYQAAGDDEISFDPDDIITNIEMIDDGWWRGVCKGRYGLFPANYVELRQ

[7] = molecular target: GST-endophilin I SH3 domain (mouse) (UniProt Q62420)
GST-endophilin I SH3 domain (mouse), sequence (Q62420 290-349): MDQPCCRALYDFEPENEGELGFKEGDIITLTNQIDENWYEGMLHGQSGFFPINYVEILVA

[8] = molecular target: GST-intersectin I SH3A domain (Xenopus laevis)
[9] = molecular target: GST-intersectin I SH3C domain (Xenopus laevis)
[10] = molecular target: GST-intersectin I SH3E domain (Xenopus laevis)
[11] = molecular target: GST-p85 SH3 domain (bovine) (UniProt P23727)
[12] = molecular target: GST-sorting-nexin 9 (SNX9) SH3 domain (human) (UniProt Q9Y5X1)
GST-sorting-nexin 9 (SNX9) SH3 domain (human), sequence (Q9Y5X1 1-62): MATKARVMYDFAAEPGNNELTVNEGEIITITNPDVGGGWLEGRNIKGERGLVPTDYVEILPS

[13] = molecular target: GST-syndapin I SH3 domain (mouse) (UniProt Q61644)
GST-syndapin I SH3 domain (mouse), sequence (Q61644 382-441): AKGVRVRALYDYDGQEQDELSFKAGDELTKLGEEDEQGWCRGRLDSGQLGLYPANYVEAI

[14] = molecular target: GST-Actin binding protein 1 (Abp1) SH3 domain (mouse) (UniProt Q62418); remark: listed apart in the source
[15] = molecular target: GST-Cdc42 interacting protein 4 (CIP4) SH3 domain (human) (UniProt Q15642); remark: listed apart in the source
[16] = molecular target: GST-Formin Binding Protein 17 (FBP17) SH3 domain (human) (UniProt Q96RU3); remark: listed apart in the source
[17] = molecular target: GST-amphiphysin I SH3 domain (human) (UniProt P49418); remark: listed apart in the source
[18] = molecular target: GST-amphiphysin II SH3 domain (human) (UniProt O00499); remark: listed apart in the source
[19] = molecular target: GST-cortactin SH3 domain (mouse) (UniProt Q60598); remark: listed apart in the source
[20] = molecular target: GST-endophilin I SH3 domain (mouse) (UniProt Q62420); remark: listed apart in the source
[21] = molecular target: GST-intersectin I SH3C domain (Xenopus laevis); remark: listed apart in the source
[22] = molecular target: GST-intersectin I SH3E domain (Xenopus laevis); remark: listed apart in the source
[23] = molecular target: GST-p85 SH3 domain (bovine) (UniProt P23727); remark: listed apart in the source
[24] = molecular target: GST-syndapin I SH3 domain (mouse) (UniProt Q61644); remark: listed apart in the source

GST-Formin Binding Protein 17 (FBP17) SH3 domain (human), sequence (Q96RU3 550-611): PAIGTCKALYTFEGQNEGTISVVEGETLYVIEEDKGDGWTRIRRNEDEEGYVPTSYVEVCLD
GST-Actin binding protein 1 (Abp1) SH3 domain (mouse), sequence (Q62418 377-436): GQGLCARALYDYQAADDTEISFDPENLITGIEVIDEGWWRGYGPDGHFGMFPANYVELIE
GST-amphiphysin II SH3 domain (human), sequence (O00499 520-593): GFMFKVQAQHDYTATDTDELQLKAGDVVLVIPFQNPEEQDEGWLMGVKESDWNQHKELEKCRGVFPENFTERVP
GST-amphiphysin I SH3 domain (human), sequence (P49418 622-695): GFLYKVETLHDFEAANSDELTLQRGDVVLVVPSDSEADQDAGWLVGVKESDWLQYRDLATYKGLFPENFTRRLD
GST-Cdc42 interacting protein 4 (CIP4) SH3 domain (human), sequence (Q15642 540-601): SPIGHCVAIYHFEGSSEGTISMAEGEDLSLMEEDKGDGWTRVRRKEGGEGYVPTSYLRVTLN

Row | Substance | rate of dynamin GTPase activity stimulated by the GST-SH3 domain (ELIPA, 30 mM NaCl, basal rate subtracted) (μmoles Pi/mg of dyn/min) [1] | rate of dynamin GTPase activity stimulated by the GST-SH3 domain (ELIPA, 30 mM NaCl, basal rate subtracted) (μmoles Pi/mg of dyn/min) [2] | rate of dynamin GTPase activity stimulated by the GST-SH3 domain (ELIPA, 30 mM NaCl, basal rate subtracted) (μmoles Pi/mg of dyn/min) [3] | rate of dynamin GTPase activity stimulated by the GST-SH3 domain (ELIPA, 30 mM NaCl, basal rate subtracted) (μmoles Pi/mg of dyn/min) [4] | rate of dynamin GTPase activity stimulated by the GST-SH3 domain (ELIPA, 30 mM NaCl, basal rate subtracted) (μmoles Pi/mg of dyn/min) [5] | rate of dynamin GTPase activity stimulated by the GST-SH3 domain (ELIPA, 30 mM NaCl, basal rate subtracted) (μmoles Pi/mg of dyn/min) [6] | rate of dynamin GTPase activity stimulated by the GST-SH3 domain (ELIPA, 30 mM NaCl, basal rate subtracted) (μmoles Pi/mg of dyn/min) [7] | rate of dynamin GTPase activity stimulated by the GST-SH3 domain (ELIPA, 30 mM NaCl, basal rate subtracted) (μmoles Pi/mg of dyn/min) [8] | rate of dynamin GTPase activity stimulated by the GST-SH3 domain (ELIPA, 30 mM NaCl, basal rate subtracted) (μmoles Pi/mg of dyn/min) [9] | rate of dynamin GTPase activity stimulated by the GST-SH3 domain (ELIPA, 30 mM NaCl, basal rate subtracted) (μmoles Pi/mg of dyn/min) [10] | rate of dynamin GTPase activity stimulated by the GST-SH3 domain (ELIPA, 30 mM NaCl, basal rate subtracted) (μmoles Pi/mg of dyn/min) [11] | rate of dynamin GTPase activity stimulated by the GST-SH3 domain (ELIPA, 30 mM NaCl, basal rate subtracted) (μmoles Pi/mg of dyn/min) [12] | rate of dynamin GTPase activity stimulated by the GST-SH3 domain (ELIPA, 30 mM NaCl, basal rate subtracted) (μmoles Pi/mg of dyn/min) [13] | dynamin GTPase activity stimulated by the GST-SH3 domain (ELIPA, 150 mM NaCl) (μmoles Pi/mg of dynamin) [14] | dynamin GTPase activity stimulated by the GST-SH3 domain (ELIPA, 150 mM NaCl) (μmoles Pi/mg of dynamin) [15] | dynamin GTPase activity stimulated by the GST-SH3 domain (ELIPA, 150 mM NaCl) (μmoles Pi/mg of dynamin) [16] | dynamin GTPase activity stimulated by the GST-SH3 domain (ELIPA, 150 mM NaCl) (μmoles Pi/mg of dynamin) [17] | dynamin GTPase activity stimulated by the GST-SH3 domain (ELIPA, 150 mM NaCl) (μmoles Pi/mg of dynamin) [18] | dynamin GTPase activity stimulated by the GST-SH3 domain (ELIPA, 150 mM NaCl) (μmoles Pi/mg of dynamin) [19] | dynamin GTPase activity stimulated by the GST-SH3 domain (ELIPA, 150 mM NaCl) (μmoles Pi/mg of dynamin) [20] | also measured
1 | recombinant human dynamin I middle domain splice variant Iab (enzyme) | 0.011 | 0 | 0.084 | 0.032 | 0.01 | 0.03 | 0.032 | 0.026 | 0 | 0.023 | 0.014 | 0.03 | 0.026 | < 0.03 | < 0.03 | < 0.03 | < 0.03 | < 0.03 | < 0.03 | < 0.03 | dynamin GTPase activity stimulated by the GST-SH3 domain (ELIPA, 150 mM NaCl) (μmoles Pi/mg of dynamin) [21]: < 0.03; dynamin GTPase activity stimulated by the GST-SH3 domain (ELIPA, 150 mM NaCl) (μmoles Pi/mg of dynamin) [22]: < 0.03; dynamin GTPase activity stimulated by the GST-SH3 domain (ELIPA, 150 mM NaCl) (μmoles Pi/mg of dynamin) [23]: < 0.03; dynamin GTPase activity stimulated by the GST-SH3 domain (ELIPA, 150 mM NaCl) (μmoles Pi/mg of dynamin) [24]: < 0.03
2 | recombinant human dynamin I middle domain splice variant Ibb (enzyme) | 0.011 | 0.019 | 0.098 | 0.056 | 0.013 | 0.102 | 0.016 | 0.075 | 0.017 | 0.036 | 0.02 | 0.041 | 0.068 | < 0.03 | < 0.03 | < 0.03 | < 0.03 | < 0.03 | < 0.03 | < 0.03 | dynamin GTPase activity stimulated by the GST-SH3 domain (ELIPA, 150 mM NaCl) (μmoles Pi/mg of dynamin) [21]: < 0.03; dynamin GTPase activity stimulated by the GST-SH3 domain (ELIPA, 150 mM NaCl) (μmoles Pi/mg of dynamin) [22]: < 0.03; dynamin GTPase activity stimulated by the GST-SH3 domain (ELIPA, 150 mM NaCl) (μmoles Pi/mg of dynamin) [23]: < 0.03; dynamin GTPase activity stimulated by the GST-SH3 domain (ELIPA, 150 mM NaCl) (μmoles Pi/mg of dynamin) [24]: < 0.03
